The data set concerns the molecule itself. Nature of the data set: crystal structure; selenomethionine-labelled NMB1585, 9.7 mg/ml in 20 mM Tris pH 7.5, 200 mM NaCl, 1 mM TCEP; crystals from 0.1 M HEPES pH 7.5, 25% PEG 3350, 0.2 M ammonium chloride; space group P2(1), two subunits per asymmetric unit; 2.1 Å.

The text below walks through data of publication PMC2650471, “The structure of NMB1585, a MarR-family regulator from Neisseria meningitidis” (Acta Crystallographica Section F: Structural Biology and …, 2009).

B1: NMB1585, MarR-family transcription factor from Neisseria meningitidis (natural protein)
chain: MNQLDQLGTRINLICNVFDKWIGQQDLNYNLFAVLYTLATEGSRTQKHIGEKWSLPKQTVSGVCKTLAGQGLIEWQEGEQDRRKRLLSLTETGKAYAAPLTESAQEFSDKVFATFGDKRTTRLFADLDALAEVMEKTISENKK
modifications: selenomethionine-labelled (selenomethionine in place of methionine)
notes: NMB1585, MarR-family regulator, Neisseria meningitidis strain MC58; amplified from genomic DNA with primers that run from the ATG start codon to the stop codon; cloned into pDEST17 with an N-terminal His tag and a 3C protease cleavage site; also called meningococcal MarR; source: tag removed with 3C protease; not shown: His tag, N-terminal, cleaved
Turning to B1, the “stoichiometry N” value came out at 2.
